Source: patent publication US20110195494A1 (Boehringer Ingelheim, published 2011)
Where two headings read alike, the source gives them in different places. Values belong to the binder of their own block, whether it stands above or below them.

Experiments:
[1] = target: T1, recombinant human DLL4, C-terminally His-tagged extracellular domain (R&D Systems) (human, UniProt Q9NR61 25-522, biotinylated where used in competition ELISA, AlphaScreen and on SA chips); assay: competition ELISA, periplasmic extract
T1 construct: also called rhDLL4; hDLL4; not shown: C-terminal His tag
T1 sequence (Q9NR61 25-522): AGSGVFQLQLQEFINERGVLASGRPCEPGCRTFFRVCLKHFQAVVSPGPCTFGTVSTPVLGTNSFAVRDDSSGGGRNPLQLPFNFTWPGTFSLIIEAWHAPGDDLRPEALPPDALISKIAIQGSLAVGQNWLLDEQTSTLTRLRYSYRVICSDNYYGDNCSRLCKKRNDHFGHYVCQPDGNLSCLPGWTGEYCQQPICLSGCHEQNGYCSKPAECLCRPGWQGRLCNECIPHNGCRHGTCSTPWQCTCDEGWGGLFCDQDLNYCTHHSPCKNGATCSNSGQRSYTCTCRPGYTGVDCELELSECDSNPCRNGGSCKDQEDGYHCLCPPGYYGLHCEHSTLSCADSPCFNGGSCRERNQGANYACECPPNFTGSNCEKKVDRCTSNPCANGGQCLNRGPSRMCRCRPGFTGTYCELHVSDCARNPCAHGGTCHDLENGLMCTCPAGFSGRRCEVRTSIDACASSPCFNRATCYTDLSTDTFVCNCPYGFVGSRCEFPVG

[2] = target: T1, recombinant human DLL4, C-terminally …; assay: hDLL4/hNotch1-Fc AlphaScreen, periplasmic extract
Experimental: Periplasmic extracts are screened in a human DII4/human Notch1 AlphaScreen assay to assess the blocking capacity of the expressed VHHs. Human DII4 is biotinylated using biotin (Sigma, St Louis, Mo., USA) and biotinamidohexanoic acid 3-sulfo-N-hydroxysuccinimide ester sodium salt (Sigma, St Louis, Mo., USA). […] To evaluate the neutralizing capacity of the VHHs, dilution series of the periplasmic extracts are pre-incubated with biotinylated human DII4. To this mixture, the acceptor beads and the streptavidin donor beads are added and further incubated for 1 hour at room temperature. Fluorescence is measured by reading plates on the Envision Multilabel Plate reader (Perkin Elmer, Waltham, Mass., USA) using an excitation wavelength of 680 nm and an emission wavelength of 520 nm.

[3] = target: T2, full length human DLL4 on overexpressing CHO or HEK293 cells (human, UniProt Q9NR61 27-685); assay: FMAT competition: labelled hNotch1/Fc on CHO-hDLL4 cells
T2 construct: also called CHO-hDLL4; HEK293-hDII4
T2 sequence (Q9NR61 27-685 limits assumed): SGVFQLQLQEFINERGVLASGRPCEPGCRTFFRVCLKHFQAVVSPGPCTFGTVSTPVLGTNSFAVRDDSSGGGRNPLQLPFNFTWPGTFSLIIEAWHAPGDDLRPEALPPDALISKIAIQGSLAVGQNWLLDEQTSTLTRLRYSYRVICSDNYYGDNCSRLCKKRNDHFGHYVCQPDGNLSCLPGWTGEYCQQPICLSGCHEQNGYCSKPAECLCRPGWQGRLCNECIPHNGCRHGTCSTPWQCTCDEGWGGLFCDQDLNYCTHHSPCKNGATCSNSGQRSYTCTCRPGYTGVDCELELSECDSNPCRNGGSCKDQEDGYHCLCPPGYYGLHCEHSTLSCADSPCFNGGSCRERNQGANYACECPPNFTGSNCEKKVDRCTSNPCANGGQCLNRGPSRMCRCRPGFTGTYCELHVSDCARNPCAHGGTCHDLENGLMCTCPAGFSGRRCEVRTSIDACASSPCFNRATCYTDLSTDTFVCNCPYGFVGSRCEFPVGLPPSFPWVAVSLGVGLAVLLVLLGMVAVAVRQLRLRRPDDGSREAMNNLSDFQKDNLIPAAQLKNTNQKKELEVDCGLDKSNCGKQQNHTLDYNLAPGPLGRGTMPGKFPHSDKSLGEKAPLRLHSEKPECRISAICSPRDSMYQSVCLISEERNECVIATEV
Description: (§1) All calculations are based on the FL1 total signal which comprises the average of the fluorescence per well times the number of counts per well.

[4] = target: T3, full length mouse DLL4 on overexpressing CHO or HEK293 cells (mouse, UniProt Q9JI71 27-686); assay: FMAT competition: labelled hNotch1/Fc on CHO-mDLL4 cells
T3 construct: whole, on cells; also called CHO-mDLL4; mDLL4
T3 sequence (Q9JI71 27-686): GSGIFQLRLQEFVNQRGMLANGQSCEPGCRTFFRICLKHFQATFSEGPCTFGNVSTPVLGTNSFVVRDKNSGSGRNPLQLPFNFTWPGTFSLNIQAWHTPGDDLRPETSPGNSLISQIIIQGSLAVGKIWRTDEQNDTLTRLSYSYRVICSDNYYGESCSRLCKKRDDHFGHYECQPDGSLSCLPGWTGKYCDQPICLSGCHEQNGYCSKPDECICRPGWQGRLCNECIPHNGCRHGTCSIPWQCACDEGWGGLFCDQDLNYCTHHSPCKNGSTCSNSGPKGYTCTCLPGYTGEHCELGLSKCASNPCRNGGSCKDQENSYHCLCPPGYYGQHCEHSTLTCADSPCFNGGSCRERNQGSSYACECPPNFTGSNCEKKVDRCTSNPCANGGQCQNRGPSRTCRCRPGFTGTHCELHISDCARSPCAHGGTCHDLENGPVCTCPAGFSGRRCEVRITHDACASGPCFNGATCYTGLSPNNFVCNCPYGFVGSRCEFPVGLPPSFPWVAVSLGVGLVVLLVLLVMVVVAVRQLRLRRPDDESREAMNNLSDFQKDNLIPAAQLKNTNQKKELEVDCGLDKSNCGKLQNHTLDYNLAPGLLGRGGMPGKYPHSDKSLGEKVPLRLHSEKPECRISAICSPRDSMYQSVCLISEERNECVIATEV
Description: as §1

[5] = target: T2, full length human DLL4 on …; assay: FMAT, hNotch1/Fc on CHO-hDLL4, periplasmic extract
Description: as §1

[6] = target: T3, full length mouse DLL4 on …; assay: FMAT, hNotch1/Fc on CHO-mDLL4, periplasmic extract
Description: as §1

[7] = target: T1, recombinant human DLL4, C-terminally …; assay: binding ELISA, coated rhDLL4
human DLL1 (Alexis) [8] = target: T4, human DLL1 (Alexis) (human, UniProt O00548 18-545, limits assumed); assay: binding ELISA, coated rhDLL1
T4 construct: also called hDLL1; rhDLL1
T4 sequence (looked up): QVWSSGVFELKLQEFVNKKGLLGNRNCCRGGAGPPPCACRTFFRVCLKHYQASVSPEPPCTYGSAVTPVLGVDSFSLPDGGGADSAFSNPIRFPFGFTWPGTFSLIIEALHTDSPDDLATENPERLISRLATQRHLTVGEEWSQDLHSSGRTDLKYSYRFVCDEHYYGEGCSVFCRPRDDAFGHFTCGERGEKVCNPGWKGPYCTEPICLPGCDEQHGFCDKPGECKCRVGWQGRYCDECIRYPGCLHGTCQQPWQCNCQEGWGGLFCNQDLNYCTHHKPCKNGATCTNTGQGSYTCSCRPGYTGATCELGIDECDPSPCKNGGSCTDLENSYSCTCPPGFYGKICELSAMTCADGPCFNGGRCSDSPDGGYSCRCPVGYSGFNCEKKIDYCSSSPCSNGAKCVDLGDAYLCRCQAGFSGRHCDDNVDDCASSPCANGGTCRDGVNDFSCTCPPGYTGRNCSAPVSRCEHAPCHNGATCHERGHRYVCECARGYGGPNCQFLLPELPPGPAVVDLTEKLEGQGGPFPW

human Jagged-1 (Alexis) [9] = target: T5, human Jagged-1 (Alexis) (human, UniProt P78504 34-1067, limits assumed); assay: binding ELISA, coated rhJagged-1
T5 construct: also called hJag-1; hJAG1

human DLL1 (Alexis) [10] = target: T4, human DLL1 (Alexis); assay: binding ELISA, coated rhDLL1; remark: listed apart in the source
human Jagged-1 (Alexis) [11] = target: T5, human Jagged-1 (Alexis); assay: binding ELISA, coated rhJagged-1; remark: listed apart in the source

B2: DLLBII19F04 (VHH)
VHH: EVQLVESGGGLVQAEGSLRLSCAASGSTFSTYAMAWYRQAPGKQRELVAGISFDGSTHYAESVKGRFTISRDDAKNTVSLQMNSLKPEDAAVYYCYSVHPSTGFGSWGQGTQVTVSS
notes: also called DLLBII19F4; not shown: C-terminal c-myc tag and His6 tag
ELISA hDLL4 % inhibition [1]: 98%
Alpha Screen hDLL4 % inhibition [2]: 95%

B4: 78B03 (VHH)
VHH: EVQLVESGGGLVQAGGSLRLSCAASGRTFSNYIMGWFRQAPGKEREFVAGISRYGDYTAYADSVKGRFTISRDNVKNTVYLRMNSLKPDDTAVYYCAANEGYCSGYGCYEDSGQYDYWGQGTQVTVSS
notes: also called DLLBII78B03
binding result [3]: binds
binding result [4]: binds

B6: DLLBII104G01 (VHH)
VHH: EVQLVESGGGLVQAGGSLRLSCAASGFTFDDYAIGWFRQAPGKEREGVSCISSSDGSTYYADSVKGRFTISSDNAKNTVYLQMNSLKPEDTAVYYCATAWCDSSWYRSFVGYWGQGTQVTVSS
notes: also called DLLBII104G1; 104G1; not shown: C-terminal c-myc tag and His6 tag
FMAT hDLL4 % inhibition [5]: 94%
FMAT mDLL4 % inhibition [6]: 86%
IC50 (read off the curve) [4]: 64 to 70 nM

B8: DLLBII129E11 (VHH)
VHH: EVQLVESGGGLVQAGGSLRLSCAASGRTFSSYAMAWYRQAPGKEREYVAAIRWSGGTAYYADSVQGRFTISRDNAKNTVYLQMNSLKPEDTAVYYCANRAPDTRLRPYLYDYWGQGTQVTVSS
notes: not shown: C-terminal c-myc tag and (His)6 tag
EC50 (read off the curve) [7]: ~0.6 nM
binding result (human DLL1 (Alexis) [8]): no binding (tested: 1e-6 M)
binding result (human Jagged-1 (Alexis) [9]): no binding (tested: 1e-6 M)

B9: DLLBII129D08 (VHH)
VHH: EVQLVESGGGLVQAGGSLRLSCAASGRTFSSYAMAWYRQAPGKEREYVAAIRWSGGTAYYADSVQGRFTISRDNAKNTVYLQMNSLKPEDTAVYYCANRAPDTRLEPYLYDYWGQGTQVTVSS
notes: as for B8
EC50 (read off the curve) [7]: ~0.6 nM
binding result (human DLL1 (Alexis) [8]): no binding (tested: 1e-6 M)
binding result (human Jagged-1 (Alexis) [9]): no binding (tested: 1e-6 M)

B11: DLLBII133A09 (VHH)
VHH: EVQLVESGGGLVQPGGSLRLSCAASGFTFGSYDMSWVRRSPGKGPEWVSAINSGGGSTYYADYVKGRFTISRDNAKNTLYLQMNSLKPEDTAVYYCAADRYIWARQGEYWGAYAYDYWGQGTQVTVSS
notes: as for B8
binding result (human DLL1 (Alexis) [10]): no binding (tested: 1e-6 M)
binding result (human Jagged-1 (Alexis) [11]): no binding (tested: 1e-6 M)

B12: DLLBII133G05 (VHH)
VHH: EVQLVESGGGLVQPGGSLRLSCAASGFTFGSYDMSWVRRSPGKGPEWVSAINSGGGSTYYTDYVKGRFTISRDNAKNTLYLQMNSLKPEDTAVYYCAADRYIWARQGEYWGAYAYDYWGQGTQVTVSS
notes: as for B8
binding result (human DLL1 (Alexis) [10]): no binding (tested: 1e-6 M)
binding result (human Jagged-1 (Alexis) [11]): no binding (tested: 1e-6 M)

B14: DLLBII28B06 (VHH)
VHH: EVQLVESGGGLVQAGGSLRLSCAASGSTFSTYAMGWYRQDPGNQRELVAAISSDGSTHYADSVKGRFTISRDNAKNTVYLQMNSLKPEDTAVYYCYAPVKVAGLEYDYWGQGTQVTVSS
notes: tested as periplasmic extract; also called DLLBII28B6; not shown: C-terminal c-myc tag and His6 tag
ELISA hDLL4 % inhibition [1]: 23%
Alpha Screen hDLL4 % inhibition [2]: 54%

B16: DLLBII17C01 (VHH)
VHH: EVQLVESGGGLVQAGGSLRLSCAASGFTFDDYPIGWLRQAPGKEREGVSCISSSDDSTYYADSVKGRFTISSNNAKNTVYLQMNSLKPEDTAVYYCAVRLFSGGCAVVAGTSWADFGSSGQGTQVTVSS
notes: tested as periplasmic extract; also called DLLBII17C1; not shown: C-terminal c-myc tag and His6 tag
ELISA hDLL4 % inhibition [1]: 82%
Alpha Screen hDLL4 % inhibition [2]: 84%

B17: DLLBII17B03 (VHH)
VHH: EVQLVESGGGLVQPGGSLRLSCAASGFTFENYALGWFRQAPGKEREWVSCISSSDGTTYYADSVKGRFTISRDNVKNTVYLQMNRLKPEDTAIYYCALSLGSSWCAYDYWGQGTQVTVSS
notes: tested as periplasmic extract; also called DLLBII17B3; not shown: C-terminal c-myc tag and His6 tag
ELISA hDLL4 % inhibition [1]: 76%
Alpha Screen hDLL4 % inhibition [2]: 77%

The remaining lines, values ahead:

ELISA hDLL4 % inhibition [1]: 98%
Alpha Screen hDLL4 % inhibition [2]: 98%
B1: DLLBII19F12 (VHH)
VHH: EVQLVESGGGLVQAGGSLRLSCTASGSTFTSYAMGWYRQAPGKQRELVAAISSDDSTYYADCVKGRFTISRDNAKNTVYLQMNSLKPEDTAVYYCNAPHSDYDEEAPSDFGSWGQGTQVTVSS
notes: tested as periplasmic extract; not shown: C-terminal c-myc tag and His6 tag

binding result [3]: binds
IC50 (read off the curve) [4]: ~40 nM
B3: 83G04 (VHH)
VHH: EVQLVESGGGLVKPGGSLRLSCAASGRTLYIMGWYRQAPGKEREFVAGISRYGDITYAADSVKGRFTISRDSVKNTVYLRMNSLKPDDTAVYYCAANGGYCSGYGCYEDSGQYDYWGQGTQVTVSS
notes: also called DLLBII83G04

FMAT hDLL4 % inhibition [5]: 87%
FMAT mDLL4 % inhibition [6]: 93%
IC50 (read off the curve) [4]: ~50 nM
B5: DLLBII83G01 (VHH)
VHH: EVQLVESGGGLVQAGGSLRLSCAASGRTFSNYIMGWFRQAPGKEREFVAGISRYADYTGYADSVKGRFTISRDNVKNTVYLRMNSLKPDDTAVYYCAANEGYCSGYGCYEDSGQYDYWGQGTQVTVSS
notes: tested as periplasmic extract; also called DLLBII83G1; not shown: C-terminal c-myc tag and His6 tag

EC50 (read off the curve) [7]: ~0.6 nM
binding result (human DLL1 (Alexis) [8]): no binding (tested: 1e-6 M)
binding result (human Jagged-1 (Alexis) [9]): no binding (tested: 1e-6 M)
B7: DLLBII129B05 (VHH)
VHH: EVQLVESGGGLVQAGGSLRLSCAASGRTFSSYAMAWYRQAPGKEREYVAAIRWSGGTAYYADSVQGRFTISRDNAKNTVYLQMNSLKPEDTAVYYCANRAPDTRLAPYEYDHWGQGTQVTVSS
notes: as for B8

binding result (human DLL1 (Alexis) [10]): no binding (tested: 1e-6 M)
binding result (human Jagged-1 (Alexis) [11]): no binding (tested: 1e-6 M)
B10: DLLBII015 (VHH)
VHH: EVQLVESGGGLVQPGGSLRLSCAASGFTIGSYDMSWVRRSPGKGPEWVSAINSGGGSTYYADYVKGRFTISRDNAKNTLYLQMNSLKPEDTAVYYCAADRYIWARQGEYWGAYAYDYWGQGTQVTVSS
notes: as for B8

binding result (human DLL1 (Alexis) [10]): no binding (tested: 1e-6 M)
binding result (human Jagged-1 (Alexis) [11]): no binding (tested: 1e-6 M)
B13: DLLBII136C07 (VHH)
VHH: EVQLVESGGGLVQPGGSLRLSCAASGFTFGSYDMSWVRRSPGKGPEWVSSINSGGGSTYYADYVKGRFTISRDNAKNTLYLQMNSLKPEDTAVYYCAADRYIWARQGEYWGAYEYDYWGQGTQVTVSS
notes: as for B8

ELISA hDLL4 % inhibition [1]: 93%
Alpha Screen hDLL4 % inhibition [2]: 82%
B15: DLLBII17G10 (VHH)
VHH: EVQLVESGGGLVQAGGSLRLSCAASGSTFSSYAMGWYRHQAPGKQRELVAAISSDGSTHYADSVKGRFTISRDNAKNTMYLQMNSLKPEDTAVYYCNTKTFGSNWYDDYWGQGTQVTVSS
notes: as for B1

ELISA hDLL4 % inhibition [1]: 98%
Alpha Screen hDLL4 % inhibition [2]: 88%
B18: DLLBII17F10 (VHH)
VHH: EVQLVESGGGLVQAGGSLRLSCASSGRTLLNYAMGWFRQAPGKEREFVSGINWSGGSTYYADSVKGRFTISRDNAENTVYLHMNSLKPEDTAVYYCAAAHDNYWFTDDSLGRGLKYWGQGTQVTVSS
notes: not shown: C-terminal c-myc tag and His6 tag
